Measured values reported in the supplement of paper PMC9112550, “Optimization of the antimicrobial peptide Bac7 by deep mutational scanning” (BMC Biology, 2022).

System: Escherichia coli TOP10
Assay: shrunken log2 fold change of peptide-encoding DNA abundance (4.5 h post-induction vs induction); higher = less antimicrobial activity (less host growth inhibition)
Conditions: time post-induction: 4.5 h; library: site-saturation at positions 5, 18, 19, 20
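Also: peptides expressed intracellularly from a pBAD plasmid library in pooled LB shake-flask culture, induced with 0.3% L-arabinose, DNA abundance read by NGS, three biological replicates, DESeq2 with apeglm shrinkage.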

Sequence | shrunken log2 fold change
RRIRDRPPRLPRPRPRPHPRPRP | 0.081
RRIRDRPPRLPRPRPRPHSLPRP | -0.341
RRIRDRPPRLPRPRPRPHSTPRP | -0.0545
RRIRDRPPRLPRPRPRPHTMPRP | -0.863
RRIRDRPPRLPRPRPRPHTVPRP | -0.0379
RRIRDRPPRLPRPRPRPHVLPRP | 0.00542
RRIRDRPPRLPRPRPRPHYYPRP | -0.236
RRIRDRPPRLPRPRPRPIAYPRP | -0.114
RRIRDRPPRLPRPRPRPICTPRP | 0.198
RRIRDRPPRLPRPRPRPIDEPRP | 0.0126
RRIRDRPPRLPRPRPRPIDIPRP | -0.0169
RRIRDRPPRLPRPRPRPIECPRP | 0.279
RRIRDRPPRLPRPRPRPIFAPRP | 0.142
RRIRDRPPRLPRPRPRPIFVPRP | 0.0563
RRIRDRPPRLPRPRPRPIHAPRP | 0.125
RRIRDRPPRLPRPRPRPIHQPRP | -0.241
RRIRDRPPRLPRPRPRPIHSPRP | -0.00999
RRIRDRPPRLPRPRPRPIHTPRP | -0.159
RRIRDRPPRLPRPRPRPIIDPRP | -0.02
RRIRDRPPRLPRPRPRPIIEPRP | 0.479
RRIRDRPPRLPRPRPRPIKCPRP | -0.0161
RRIRDRPPRLPRPRPRPIKNPRP | -0.158
RRIRDRPPRLPRPRPRPIMFPRP | 0.0387
RRIRDRPPRLPRPRPRPIMVPRP | -0.103
RRIRDRPPRLPRPRPRPIMYPRP | -0.0948
RRIRDRPPRLPRPRPRPINCPRP | -0.0287
RRIRDRPPRLPRPRPRPINQPRP | -0.389

Sequence | shrunken log2 fold change
RRIRDRPPRLPRPRPRPIPGPRP | 0.171
RRIRDRPPRLPRPRPRPIPIPRP | -0.0457
RRIRDRPPRLPRPRPRPIQCPRP | 0.0299
RRIRDRPPRLPRPRPRPIQDPRP | -0.0113
RRIRDRPPRLPRPRPRPIQTPRP | 0.00408
RRIRDRPPRLPRPRPRPIRYPRP | -0.103
RRIRDRPPRLPRPRPRPISCPRP | -0.0129
RRIRDRPPRLPRPRPRPISKPRP | 0.002
RRIRDRPPRLPRPRPRPISYPRP | -0.381
RRIRDRPPRLPRPRPRPITEPRP | -0.0351
RRIRDRPPRLPRPRPRPITYPRP | 0.024
RRIRDRPPRLPRPRPRPIVFPRP | -0.0706
RRIRDRPPRLPRPRPRPIWCPRP | -0.0176
RRIRDRPPRLPRPRPRPIWVPRP | -0.0618
RRIRDRPPRLPRPRPRPIYKPRP | -0.175
RRIRDRPPRLPRPRPRPKCFPRP | 0.0766
RRIRDRPPRLPRPRPRPKCKPRP | -0.0015
RRIRDRPPRLPRPRPRPKCQPRP | -0.00187
RRIRDRPPRLPRPRPRPKFCPRP | -0.0512
RRIRDRPPRLPRPRPRPKFDPRP | -0.0895
RRIRDRPPRLPRPRPRPKFQPRP | 0.00463
RRIRDRPPRLPRPRPRPKFTPRP | -0.0602
RRIRDRPPRLPRPRPRPKGIPRP | 0.0238
RRIRDRPPRLPRPRPRPKGTPRP | -0.0298
RRIRDRPPRLPRPRPRPKKLPRP | -0.0595
RRIRDRPPRLPRPRPRPKLSPRP | 0.0504
RRIRDRPPRLPRPRPRPKMAPRP | 0.38
